Measurements from paper PMC7380067.
Changes are numbered by the printed parent chain.

What was measured:
[1] = test system: AgrR-His6 (Cupriavidus metallidurans NA4); assay: EMSA; conditions: 25 ug/ml salmon sperm DNA; 25 mM Na2HPO4, 150 mM NaCl, 0.1 mM EDTA, 2 mM MgCl2, 1 mM DTT, 10% glycerol, pH 7.0, 22 C, about 0.1 nM probe, 25 ug/ml sonicated salmon sperm DNA
[2] = test system: MBP-AgrR D51A (Cupriavidus metallidurans NA4); assay: EMSA; conditions: 25 ug/ml salmon sperm DNA; 25 mM Na2HPO4, 150 mM NaCl, 0.1 mM EDTA, 2 mM MgCl2, 1 mM DTT, 10% glycerol, pH 7.0, 22 C, about 0.1 nM probe, 25 ug/ml sonicated salmon sperm DNA
[3] = biological target: T1, AgrR-His6 (Cupriavidus metallidurans NA4) (UniProt Q1LMJ6); assay: in gel (OP)2-Cu+ footprinting; conditions: 25 mM Na2HPO4, 150 mM NaCl, 0.1 mM EDTA, 2 mM MgCl2, 1 mM DTT, 10% glycerol, pH 7.0, 22 C, about 0.1 nM probe, 25 ug/ml sonicated salmon sperm DNA
T1 sequence: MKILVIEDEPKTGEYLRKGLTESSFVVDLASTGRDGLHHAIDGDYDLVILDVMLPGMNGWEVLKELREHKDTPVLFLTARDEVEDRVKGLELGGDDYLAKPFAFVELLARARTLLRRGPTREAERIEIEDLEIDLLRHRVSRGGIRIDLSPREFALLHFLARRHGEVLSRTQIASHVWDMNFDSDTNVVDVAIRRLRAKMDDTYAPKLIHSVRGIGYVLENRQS

[4] = biological target: T1, AgrR-His6 (Cupriavidus metallidurans NA4); assay: EMSA; conditions: 25 mM Na2HPO4, 150 mM NaCl, 0.1 mM EDTA, 2 mM MgCl2, 1 mM DTT, 10% glycerol, pH 7.0, 22 C, about 0.1 nM probe, 25 ug/ml sonicated salmon sperm DNA
[5] = biological target: T1, AgrR-His6 (Cupriavidus metallidurans NA4); assay: DNase I footprinting; conditions: 25 mM Na2HPO4, 150 mM NaCl, 0.1 mM EDTA, 2 mM MgCl2, 1 mM DTT, 10% glycerol, pH 7.0, 22 C, about 0.1 nM probe, 25 ug/ml sonicated salmon sperm DNA
[6] = biological target: T2, MBP-AgrR D51A D51A (Cupriavidus metallidurans NA4) (UniProt Q1LMJ6); assay: DNase I footprinting; conditions: 25 mM Na2HPO4, 150 mM NaCl, 0.1 mM EDTA, 2 mM MgCl2, 1 mM DTT, 10% glycerol, pH 7.0, 22 C, about 0.1 nM probe, 25 ug/ml sonicated salmon sperm DNA
T2 sequence: T1 sequence with D51A

[7] = biological target: T3, MBP-AgrR D51E D51E (Cupriavidus metallidurans NA4) (UniProt Q1LMJ6); assay: EMSA; conditions: 25 mM Na2HPO4, 150 mM NaCl, 0.1 mM EDTA, 2 mM MgCl2, 1 mM DTT, 10% glycerol, pH 7.0, 22 C, about 0.1 nM probe, 25 ug/ml sonicated salmon sperm DNA
T3 sequence: T1 sequence with D51E

[8] = biological target: T2, MBP-AgrR D51A D51A (Cupriavidus metallidurans NA4); assay: EMSA; conditions: 25 mM Na2HPO4, 150 mM NaCl, 0.1 mM EDTA, 2 mM MgCl2, 1 mM DTT, 10% glycerol, pH 7.0, 22 C, about 0.1 nM probe, 25 ug/ml sonicated salmon sperm DNA
[9] = biological target: T2, MBP-AgrR D51A D51A (Cupriavidus metallidurans NA4); assay: premodification binding interference (depurination, depyrimidination, DMS methylation); conditions: 25 mM Na2HPO4, 150 mM NaCl, 0.1 mM EDTA, 2 mM MgCl2, 1 mM DTT, 10% glycerol, pH 7.0, 22 C, about 0.1 nM probe, 25 ug/ml sonicated salmon sperm DNA

Substance: prsQ2 promoter/operator
- Kd [1]: 1600 nM

Substance: agrR control region
- Kd [2]: 1600 nM
- Kd [1]: 16500 nM

Substance: ATGGGTTACGGGTTGTTCACGGCTTGCTGGAGAGTCTGATCGGTCGTTGCGCGACCTTGGAATGCAGTCTAGAGGGCGGGTCCCGACGCGAACATGACCCTTGAATGACATTGATGTCATTTGTCCGAGGCAATGCGATACGATTGCCGGACAGGGTGCCGACCGGACAATGAATTCGGCCTTGGCGACAAATCCACGCCAAACAAC (double strand) [prsQ2 promoter/operator]
- binding [3]: binds
- Kd [4]: 1600 nM

Substance: TAGAACTGCCTGTGTTGAGCAGTTGCAGCATTGTACTGCCTCTAACGGTTGCAAAATGGCTATATCAAGATGACATTCGTGCAATGTTCGCCAATTCGTGGCAAAGCTCCGCTAGTGTCTCGGTCTATATCCAGAACCTCGAATAATGGGCCGGTACCAA (double strand) [czcL-czcR2 intergenic region]
- Kd [4]: 26500 nM

Substance: TGAAGCCGATCCATGACATAGTCTCCCTGTTCACCGGTGAATTTTTACACGATCCGGGTGATTTATTGTTGAAAGCACAACCAATCATTGTGGACGGCGCTATTTATTCATATCAGGGAAATGCCTAATATCGCACCATCTGATGCCGCATTGCAGCACCGGTCCTGGGACCACCGGCATCCTTGAATGTGAAAGAGGATTCCATCATG (double strand) [prsQ1 promoter]
- binding [4]: no binding

Substance: copA2-copR2 intergenic region
- Kd [1]: 2100 nM

Substance: AGGACGTTATCAGGGGTGGTGCGAGCCATGTCAAATTCCATTGATTCTTGTTCCCTGTCATTGAAGACCCTTTAGTCGCTACAGGGTCAAGCGCCTGCCGAAAATCTTTGGAGCGGCGCAAACATGACATGAACGTAATGTTTGCCCGCTCGCTAAACGCCTATAATCGCC (double strand) [czcI2 promoter]
- binding [4]: binds more weakly

Substance: GTTTTCATCCTCAGCTGCACGGGCTCACAGCTCAAACGATGCCGCCGATGATAACGGCGCAGGTTCGCCTATTGGATGACAAGACTGTAATCGTTTCGTCCCCGTTTGAAAGGGTGTTGCGTACATAGAATCGCCGCTAATTCTGGATGACCGGCGCCGACAGCGCCTGGAGTGAACCATGTGGATTGTGC (double strand) [agrR control region]
- binding [3]: binds
- binding [5]: binds
- binding [6]: binds
- binding [7]: binds more weakly
- Kd [4]: 16500 nM
- Kd [8]: 1600 nM
- binding [9]: binds

Substance: GTGTCCTCGTCAAACCAATGCACCCGGGCCCCGTGCCCGGAAAACGCCGCAAGTGTACGCCGCGGTCCGAACATGACGCGGACATTACCGGAATGTAATTTTTGGGTCATTAGGTGGTTACCGCGCCCTGACTACTCTGTGCTCGCTGCGCCATTTTGCTGGCGCGATTTCACAATGAGAA (double strand) [copA2-copR2 intergenic region]
- binding [3]: binds
- binding [5]: binds
- binding [6]: binds
- Kd [4]: 2100 nM

Substance: czcL-czcR2 intergenic region
- Kd [1]: 26500 nM

Substance: ATTGGAGCGGCGAGTATAGAAATGCCGACATTTCGTTTCGATTGCGGCGAGATTACAGCCGCATCGTTCCGGGCGCGGGCAGGCAGAAAAGGAGGGCGCGAGAGAAGGGCGAGAGAAGGGCGAGGGAAGGGCGGGACTACCCCGCGCCTTGGGTGCGGGGCCTGTGTCGGGTCAATCGACCCAGTTCACCTT (double strand) [ompC-like promoter]
- binding [4]: binds more weakly
